From paper PMC10235760

Molecular target: SARS-CoV-2 receptor binding domain, omicron subvariant BA5 (RBDBA5) (UniProt P0DTC2)
Test: SPR

| Substance | ratio to parent | Kd [pM] |
| --- | --- | --- |
| antibody 10-40 H:G27S | 0.79 | – |
| antibody 10-40 H:R100bI; H:S32H; L:Q53F | – | 0.05 |
| antibody 10-40 H:R100bI | 3.83 | 69.5 |
| antibody 10-40 L:Q53F | 1.42 | 188 |
| antibody 10-40 H:S98R | 0.26 | – |
| antibody 10-40 L:D51W | 0.5 | – |
| antibody 10-40 H:R100bL | 1.72 | 155 |
| antibody 10-40 H:R100bI; H:S32H | 130 | 2.05 |
